A short description of the data set: yeast display, Sf9 membrane polyspecificity reagent, FACS + sequencing; frameworks hold sequencing errors. A digest of the protocol: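 Nanobodies came from a synthetic yeast display library in Saccharomyces cerevisiae BJ5465, induced with galactose for 36–48 hours and stained for 1 hour at 4 °C with 10% biotinylated, detergent-solubilized Sf9 membrane reagent. Cells were enriched on streptavidin microbeads and then FACS-sorted, with low and high (top ~1%) gates set on anti-HA fluorescence for expression and streptavidin fluorescence for reagent binding. Each polyreactivity label reflects the gate a clone came from. Genes were amplified by colony PCR, sequenced by MiSeq 2 × 250 and filtered by CDR length.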
With “QVQLVESGGGLVQAGGSLRLSCAASGFTFVRYTMGWYRQAPGKERELVAAINRSGGNTYYADSVKGRFTISRDNAKKTVYLQMNSLKPEDTAVYYCAAGYYVQVSLKDYYWGQGTQVTVSS”, the “polyreactivity (PSR sort gate)” value is recorded as “high polyreactivity”. Consider “QVQLVESGGGLVQAGGSLRLSCAASGFTFVSNAMGWYRQAPGKERELVAAISGSGGSTYYADSVKGRFTISRDNAKNTVYLQMNSLKPEDTAVYYCAKGSRSYVRKMDYWGQGTQVTVSS”, for which the “polyreactivity (PSR sort gate)” value was “low polyreactivity”. Regarding “QVQLVESGGGLVQAGGSLRLSCAASGFTFVSNDMGWYRQAPGKERELVAAIRYRGGDTYYADSVKGRFTISRDNAKNTVYLQMNSLKPEDTAVYYCAVDVATYTAGWYYHGYDYWGQGTQVTVSS”, the “polyreactivity (PSR sort gate)” value was “low polyreactivity”. With “QVQLVESGGGLVQAGGSLRLSCAASGFTFVSYAMGWYRQAPGKERELVAAITSNGGSTYYADSVKGRFTISRDNAKNTVYLQMNSLKPEDTAVYYCAAAGFWHGYFGYGYWGQGTQVTVSS”, the “polyreactivity (PSR sort gate)” value is “low polyreactivity”. As to “QVQLVESGGGLVQAGGSLRLSCAASGFTFVSYAMGWYRQAPGKERELVASITWTGGSTYYADSVKGRFTISRDYAKNTVYLQMNSLKPEDTAVYYCAAQQFYSGILGRYYWGQGTQVTVSS”, the “polyreactivity (PSR sort gate)” value is “low polyreactivity”. In the case of “QVQLVESGGGLVQAGGSLRLSCAASGFTFVVYAMGWYSQAPGKERELVARITWSGGSTYYADSVKGRFTISRDNAKNTVYLQMNSLKPEDTAVYDCNTRRYPYDGIEHDYWGQGTQVTVSS”, the “polyreactivity (PSR sort gate)” value was “low polyreactivity”. For the sequence “QVQLVESGGGLVQAGGSLRLSCAASGFTFVYNAMGWYRQAPGKERELVAAITFSGGSTYYADSVNGRFTISRDNAKNTVYLQMNSLKPEDTAVYYCATDYPGVFVLRRSHPYDYWGQGTQVTVSS”, the “polyreactivity (PSR sort gate)” value is recorded as “low polyreactivity”. To “QVQLVESGGGLVQAGGSLRLSCAASGFTFVYNAMGWYRQAPGKERELVASITQSGDITYYADSVKGRFTISRDNAKNTVYLQMNSLKPEDTAVYYCNKFQGTGDRFDSWGQGTQVTVSS” belongs “low polyreactivity”; to “QVQLVESGGGLVQAGGSLRLSCAASGFTFVYYGMGWYRQAPGKERELVADISSGGNTYYADSVKGRFTISRDNAKNTVYLQMNSLKPEETAVYYCNKDARDEEGSSRTYDYWGQGTQVTVSS”, “low polyreactivity”; to “QVQLVESGGGLVQAGGSLRLSCAASGFTFVYYVMGWYRQAPGKERELVAAINAGGGSTYYADSVKGRFTISRDNAKNTVYLQMISLKPEDTSVYYCNARVRVRLGRNWSSYYYWGQGTQVTVSS”, “high polyreactivity”. “QVQLVESGGGLVQAGGSLRLSCAASGFTFVYYVMGWYRQAPGKERELVAAINAGGGSTYYADSVKGRFTISRDNAKNTVYLQMNSLKPEDTAVYYCNARVRVRLGRNWSSYDYWGQGSQVTVSS”: the “polyreactivity (PSR sort gate)” value was “high polyreactivity”. Take “QVQLVESGGGLVQAGGSLRLSCAASGFTFWDYAMGWYRQAPGKERELVAAISDNDGSTDYADSVKGRFTISRDNAKNTVYLQMNSLKPEDTAVYYCNAEIEMPSKEGDYWGQGTQVTVSS”: the “polyreactivity (PSR sort gate)” value is “low polyreactivity”. For the sequence “QVQLVESGGGLVQAGGSLRLSCAASGFTFWDYAMGWYRQAPGKERELVAAISWSGGSTYYADSVKGRFTISRDNAKNTVYLQMNSLKPEDTAVYYCNAVHYSHHGYDYWGQGTQVTVSS”, the “polyreactivity (PSR sort gate)” value was “low polyreactivity”.

For the sequence “QVQLVESGGGLVQAGGSLRLSCAASGFTFWGNAMGWSRQAPVKERELVAAISRSGGRTYYADSVKGRFTISRDNAKNTVYLQMNSLKPEDTAVYYCDAGSSHHFDYEGGYWGQGTQVTVSS”, the “polyreactivity (PSR sort gate)” value is reported as “low polyreactivity”. Turning to “QVQLVESGGGLVQAGGSLRLSCAASGFTFWKYTMGWYRQAPGKERELVATISSSSGSTTYADSVKGRFTISRDNAKNTVYLQMYSLKPEDTAVYYCNVDDPFYSGVVEFDYWGQGTQVTVSS”, the “polyreactivity (PSR sort gate)” value was “low polyreactivity”.

With “QVQLVESGGGLVQAGGSLRLSCAASGFTFWLYAMGWYRQAPGKERELVATISWSGGSTYYADSVKGRFTISRDNAKNTVYLQMNSLKPEDTAVYYCAARLNYGNKYDYWGQGTQVTVSS”, the “polyreactivity (PSR sort gate)” value is given as “high polyreactivity”.

Values taken from the nanobody polyreactivity screen of Harvey et al. (2022).
